Results from paper PMC4004294.
Where two headings read alike, the source gives them in different places.

Experiments:
[1] = target: glutathione S-transferase (GST) tagged HIV-1 IN (HIV-1); assay: AlphaScreen or HTRF
[2] = target: HIV-1 integrase fused to mVenus (IN-mVenus), transincorporated into virions as Vpr-IN-mVenus (HIV-1); assay: FRET or BRET
[3] = target: HIV-1 integrase fused to mVenus (IN-mVenus), transincorporated into virions as Vpr-IN-mVenus (HIV-1); assay: FRET or BRET; remark: listed apart in the source

| Substance | fold lower AlphaScreen signal than wild-type IN [1] | FRET ratio (r FRET) [2] | FRET ratio (r FRET) [3] |
| --- | --- | --- | --- |
| HIV-1 IN point mutant IN(W108G)-His6 (enzyme) | 4 fold |  |  |
| HIV-1 integrase fused to mTFP1 (IN-mTFP1), transincorporated into virions as Vpr-IN-mTFP1 (enzyme) |  | 1.27 | 1.3 |
